Assay results taken from the array DNA melting data of Ke et al..

Assay: melting temperature; melt of duplexes
Settings: sodium 0.0675 M; strand 1 µM

Substance	Tm [°C]
CGACGTGCCTGATGTGCTG+CAGCACATACCGCACGTCG ((((((((...((((((((+))))))))...))))))))	48.1
CGACGTGCGAAATGTGCTG+CAGCACATTCGGCACGTCG ((((((((..(((((((((+)))))))))..))))))))	53.7
CGACGTGCGCAATGTGCTG+CAGCACATTCGGCACGTCG ((((((((..(((((((((+)))))))))..))))))))	52.5
CGACGTGCGGAATGTGCTG+CAGCACATACAGCACGTCG ((((((((.(.((((((((+)))))))).).))))))))	54.9
CGACGTGCCTCATGTGCTG+CAGCACATTCAGCACGTCG ((((((((...((((((((+))))))))...))))))))	47.9
CGACGTGCTCCATGTGCTG+CAGCACATATTGCACGTCG ((((((((...((((((((+))))))))...))))))))	47.9
CGACGTGCAGAATGTGCTG+CAGCACATACAGCACGTCG ((((((((.(.((((((((+)))))))).).))))))))	52
CGACGTGCGGCATGTGCTG+CAGCACATGTGGCACGTCG ((((((((..(((((((((+)))))))))..))))))))	56.8
CGACGTGCGCTATGTGCTG+CAGCACATTACGCACGTCG (((((((((..((((((((+))))))))..)))))))))	53.4
CGACGTGCCCCATGTGCTG+CAGCACATGGTGCACGTCG ((((((((.((((((((((+)))))))))).))))))))	56.7
CGACGTGCCTGATGTGCTG+CAGCACATCAGGCACGTCG (((((((((((((((((((+)))))))))))))))))))	65.9
CGACGTGCGGGATGTGCTG+CAGCACATTACGCACGTCG (((((((((..((((((((+))))))))..)))))))))	58
CGACGTGCCTAATGTGCTG+CAGCACATTTCGCACGTCG ((((((((..(((((((((+)))))))))..))))))))	50.5
CGACGTGCTCTATGTGCTG+CAGCACATGCGGCACGTCG ((((((((...((((((((+))))))))...))))))))	48.5
CGACGTGCCTCATGTGCTG+CAGCACATTCGGCACGTCG (((((((((..((((((((+))))))))..)))))))))	53
CGACGTGCCAGATGTGCTG+CAGCACATTTGGCACGTCG ((((((((((.((((((((+)))))))).))))))))))	59.3
CGACGTGCATAATGTGCTG+CAGCACATGACGCACGTCG ((((((((.(.((((((((+)))))))).).))))))))	50.5
CGACGTGCGTGATGTGCTG+CAGCACATTTAGCACGTCG ((((((((...((((((((+))))))))...))))))))	53.6
CGACGTGCGGGATGTGCTG+CAGCACATAAAGCACGTCG ((((((((...((((((((+))))))))...))))))))	53.6
CGACGTGCATTATGTGCTG+CAGCACATCGGGCACGTCG ((((((((...((((((((+))))))))...))))))))	47
CGACGTGCCTAATGTGCTG+CAGCACATAACGCACGTCG ((((((((.(.((((((((+)))))))).).))))))))	48.2
CGACGTGCCGTATGTGCTG+CAGCACATATTGCACGTCG ((((((((..(((((((((+)))))))))..))))))))	51.5
CGACGTGCATAATGTGCTG+CAGCACATATCGCACGTCG ((((((((...((((((((+))))))))...))))))))	48.6
CGACGTGCCGGATGTGCTG+CAGCACATGGTGCACGTCG ((((((((...((((((((+))))))))...))))))))	47

Substance	Tm [°C]
CGACGTGCGATATGTGCTG+CAGCACATAATGCACGTCG ((((((((..(((((((((+)))))))))..))))))))	54
CGACGTGCTAGATGTGCTG+CAGCACATATTGCACGTCG ((((((((.(.((((((((+)))))))).).))))))))	52.5
CGACGTGCCACATGTGCTG+CAGCACATACGGCACGTCG (((((((((..((((((((+))))))))..)))))))))	53.4
CGACGTGCAGAATGTGCTG+CAGCACATATTGCACGTCG (((((((((..((((((((+))))))))..)))))))))	50.5
CGACGTGCTTCATGTGCTG+CAGCACATCCCGCACGTCG ((((((((...((((((((+))))))))...))))))))	47.5
CGACGTGCTGGATGTGCTG+CAGCACATTTAGCACGTCG (((((((((..((((((((+))))))))..)))))))))	54
CGACGTGCTAGATGTGCTG+CAGCACATCCTGCACGTCG ((((((((..(((((((((+)))))))))..))))))))	54.7
CGACGTGCCAAATGTGCTG+CAGCACATGAGGCACGTCG (((((((((..((((((((+))))))))..)))))))))	57.3
CGACGTGCCCCATGTGCTG+CAGCACATGATGCACGTCG ((((((((..(((((((((+)))))))))..))))))))	51.8
CGACGTGCGTTATGTGCTG+CAGCACATGTCGCACGTCG (((((((((..((((((((+))))))))..)))))))))	55
CGACGTGCCTGATGTGCTG+CAGCACATGATGCACGTCG ((((((((.(.((((((((+)))))))).).))))))))	49.4
CGACGTGCCCCATGTGCTG+CAGCACATAGCGCACGTCG ((((((((.(.((((((((+)))))))).).))))))))	47.3
CGACGTGCCCGATGTGCTG+CAGCACATAATGCACGTCG ((((((((...((((((((+))))))))...))))))))	48.1
CGACGTGCTGGATGTGCTG+CAGCACATTGCGCACGTCG ((((((((...((((((((+))))))))...))))))))	49.5
CGACGTGCGTGATGTGCTG+CAGCACATCCAGCACGTCG ((((((((..(((((((((+)))))))))..))))))))	55.5
CGACGTGCTCGATGTGCTG+CAGCACATGGAGCACGTCG ((((((((((.((((((((+)))))))).))))))))))	59.3
CGACGTGCCCGATGTGCTG+CAGCACATATCGCACGTCG ((((((((...((((((((+))))))))...))))))))	47.2
CGACGTGCGTGATGTGCTG+CAGCACATTATGCACGTCG ((((((((.(.((((((((+)))))))).).))))))))	54.5
CGACGTGCCCGATGTGCTG+CAGCACATAGGGCACGTCG ((((((((((.((((((((+)))))))).))))))))))	61.5
CGACGTGCACTATGTGCTG+CAGCACATAACGCACGTCG ((((((((..(((((((((+)))))))))..))))))))	46.2
CGACGTGCTAGATGTGCTG+CAGCACATGCCGCACGTCG ((((((((...((((((((+))))))))...))))))))	49.2
CGACGTGCCATATGTGCTG+CAGCACATGACGCACGTCG ((((((((...((((((((+))))))))...))))))))	45.5
CGACGTGCGGGATGTGCTG+CAGCACATTCAGCACGTCG ((((((((.(.((((((((+)))))))).).))))))))	56.4
CGACGTGCCGGATGTGCTG+CAGCACATCTGGCACGTCG (((((((((.(((((((((+))))))))).)))))))))	62.7

Substance	Tm [°C]
CGACGTGCAGTATGTGCTG+CAGCACATTGTGCACGTCG (((((((((..((((((((+))))))))..)))))))))	48.6
CGACGTGCCTGATGTGCTG+CAGCACATCCCGCACGTCG ((((((((..(((((((((+)))))))))..))))))))	53
CGACGTGCTATATGTGCTG+CAGCACATCCTGCACGTCG ((((((((...((((((((+))))))))...))))))))	48.3
CGACGTGCGGGATGTGCTG+CAGCACATAGGGCACGTCG ((((((((...((((((((+))))))))...))))))))	50.1
CGACGTGCCGAATGTGCTG+CAGCACATGTCGCACGTCG ((((((((...((((((((+))))))))...))))))))	51.4
CGACGTGCCCAATGTGCTG+CAGCACATCAGGCACGTCG (((((((((..((((((((+))))))))..)))))))))	53.9
CGACGTGCGCCATGTGCTG+CAGCACATATGGCACGTCG ((((((((...((((((((+))))))))...))))))))	48.1
CGACGTGCACTATGTGCTG+CAGCACATGGCGCACGTCG ((((((((.(.((((((((+)))))))).).))))))))	50.3
CGACGTGCGACATGTGCTG+CAGCACATCCAGCACGTCG ((((((((...((((((((+))))))))...))))))))	50.4
CGACGTGCGGTATGTGCTG+CAGCACATGCTGCACGTCG ((((((((.(.((((((((+)))))))).).))))))))	56.1
CGACGTGCTGAATGTGCTG+CAGCACATCCAGCACGTCG ((((((((((.((((((((+)))))))).))))))))))	57.6
CGACGTGCCCAATGTGCTG+CAGCACATGTTGCACGTCG ((((((((...((((((((+))))))))...))))))))	49.4
CGACGTGCAGGATGTGCTG+CAGCACATCCAGCACGTCG ((((((((.((((((((((+)))))))))).))))))))	59.8
CGACGTGCCTCATGTGCTG+CAGCACATACAGCACGTCG ((((((((...((((((((+))))))))...))))))))	48.3
CGACGTGCGGCATGTGCTG+CAGCACATAGTGCACGTCG ((((((((...((((((((+))))))))...))))))))	45.9
CGACGTGCTGTATGTGCTG+CAGCACATCTGGCACGTCG ((((((((...((((((((+))))))))...))))))))	50.9
CGACGTGCTCTATGTGCTG+CAGCACATATAGCACGTCG (((((((((.(((((((((+))))))))).)))))))))	54.3
CGACGTGCAGCATGTGCTG+CAGCACATACAGCACGTCG ((((((((.(.((((((((+)))))))).).))))))))	48.3
CGACGTGCCGAATGTGCTG+CAGCACATGCCGCACGTCG ((((((((.(.((((((((+)))))))).).))))))))	51.5
CGACGTGCGTTATGTGCTG+CAGCACATATAGCACGTCG ((((((((..(((((((((+)))))))))..))))))))	54.5
CGACGTGCGGAATGTGCTG+CAGCACATACCGCACGTCG ((((((((((.((((((((+)))))))).))))))))))	60.2
CGACGTGCCCAATGTGCTG+CAGCACATCTCGCACGTCG ((((((((...((((((((+))))))))...))))))))	47.6
CGACGTGCGTAATGTGCTG+CAGCACATCAAGCACGTCG ((((((((.(.((((((((+)))))))).).))))))))	53.4
CGACGTGCCGTATGTGCTG+CAGCACATGCGGCACGTCG ((((((((((.((((((((+)))))))).))))))))))	62.4
